Changes are numbered by the printed parent chain.
Columns and labels:
[1] = tested on: hPUF_MT(R5:G_13R)(R5:G_13Y)2(R6:U_13Y)3 R13Y in the second and third R5 repeats (Homo sapiens); assay: EMSA; settings: FIG. 61; Arg>Tyr between G and U; 4 C; construct name in text appears misprinted as A/G version
[2] = tested on: hPUF_MT(R5:G_13R)3(R6:U_13R)3 Y13R in the R6:U repeats; assay: EMSA; settings: text inconsistent: number 2 greater but prints Tyr>Arg
[3] = tested on: hPUF_MT(R5:A_13R)3(R6:U_13R)3 Y13R in the R6 repeats; assay: EMSA; settings: 13Y at least 30 times greater
[4] = tested on: hPUF_MT(R5:A_13R)3(R6:G_13R)3 Y13R in the R6:G repeats; assay: EMSA; settings: 13Y at least 30 times greater
[5] = tested on: hPUF_MT(R5:C_13R)3(R6:U_13R)3 Y13R in the R6:U repeats; assay: EMSA
[6] = tested on: hPUF_MT(R5:A_13R)3(R6:C_13R)3 Y13R in the R6:C repeats; assay: EMSA; settings: 13Y about 3 times greater
hPUF_MT(R3→R5, R4→R6) [7] = biological target: T1, hPUF_MT(R3→R5, R4→R6); assay: EMSA; binds G exclusively at R7 position; settings: label: Alexa680 at 5' and 3'
T1 chain: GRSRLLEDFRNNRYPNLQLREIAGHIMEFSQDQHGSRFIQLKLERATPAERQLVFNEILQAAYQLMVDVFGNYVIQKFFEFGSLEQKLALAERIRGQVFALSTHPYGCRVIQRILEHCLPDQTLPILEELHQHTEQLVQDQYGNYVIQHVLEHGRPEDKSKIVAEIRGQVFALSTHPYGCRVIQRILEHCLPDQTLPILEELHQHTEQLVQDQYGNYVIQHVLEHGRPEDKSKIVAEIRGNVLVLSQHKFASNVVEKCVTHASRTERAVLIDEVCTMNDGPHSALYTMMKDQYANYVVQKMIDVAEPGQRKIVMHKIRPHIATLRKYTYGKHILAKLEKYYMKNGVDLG

[8] = biological target: T2, hPUF_MT(R7_S12N,E16Q, R3→R5, R4→R6) (R7 repeat S12N,E16Q); assay: EMSA; binds U exclusively; settings: label: Alexa680 at 5' and 3'
T2 chain: T1 chain with S252N, E256Q

[9] = biological target: T3, hPUF_MT(R7_E16R, R3→R5, R4→R6) (R7 repeat E16R); assay: EMSA; binds C and U; settings: label: Alexa680 at 5' and 3'
T3 chain: T1 chain with E256R

[10] = biological target: T4, hPUF_MT(R5:C_13R)3(R6:U_13Y)3; assay: EMSA; settings: label: Alexa680 at 5' and 3'
T4 chain: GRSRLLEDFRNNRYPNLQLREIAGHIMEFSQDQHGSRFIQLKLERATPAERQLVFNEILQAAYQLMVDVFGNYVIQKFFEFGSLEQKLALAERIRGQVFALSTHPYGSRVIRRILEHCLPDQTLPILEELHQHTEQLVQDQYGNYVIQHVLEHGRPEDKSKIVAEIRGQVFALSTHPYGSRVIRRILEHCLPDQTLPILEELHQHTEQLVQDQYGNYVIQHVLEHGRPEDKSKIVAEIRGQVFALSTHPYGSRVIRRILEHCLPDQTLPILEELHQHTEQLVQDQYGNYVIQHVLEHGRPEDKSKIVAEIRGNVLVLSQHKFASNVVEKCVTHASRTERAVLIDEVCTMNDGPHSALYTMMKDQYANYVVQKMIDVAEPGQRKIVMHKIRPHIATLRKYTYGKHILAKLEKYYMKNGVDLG

[11] = biological target: T5, hPUF_MT(1-2-5-6-5-6-5-6-5-6-7-8); assay: EMSA; greater than MT(R3→R5, R4→R6); settings: label: Alexa680 at 5' and 3'
T5 chain: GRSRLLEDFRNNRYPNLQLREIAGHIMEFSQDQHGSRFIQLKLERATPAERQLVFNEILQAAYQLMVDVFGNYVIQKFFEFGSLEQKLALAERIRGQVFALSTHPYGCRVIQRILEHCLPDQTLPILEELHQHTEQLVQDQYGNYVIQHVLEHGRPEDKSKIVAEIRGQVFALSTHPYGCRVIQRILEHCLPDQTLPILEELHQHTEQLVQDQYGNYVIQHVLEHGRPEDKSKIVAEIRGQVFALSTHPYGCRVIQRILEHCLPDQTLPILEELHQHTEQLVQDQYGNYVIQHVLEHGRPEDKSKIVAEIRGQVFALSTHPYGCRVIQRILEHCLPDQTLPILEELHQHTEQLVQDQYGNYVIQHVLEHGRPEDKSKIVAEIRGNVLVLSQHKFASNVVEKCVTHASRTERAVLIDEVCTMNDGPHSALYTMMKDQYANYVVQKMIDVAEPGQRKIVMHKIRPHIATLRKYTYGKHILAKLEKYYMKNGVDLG

[12] = biological target: T6, hPUF_MT(R2_N12S,Q16R, R3→R5, R4→R6) (R2 repeat N12S,Q16R); assay: EMSA; binds C exclusively; settings: label: Alexa680 at 5' and 3'
T6 chain: T1 chain with N72S, Q76R

[13] = biological target: T7, hPUF_MT(R2_N12S,Q16E, R3→R5, R4→R6) (R2 repeat N12S,Q16E); assay: EMSA; binds G exclusively; settings: label: Alexa680 at 5' and 3'
T7 chain: T1 chain with N72S, Q76E

[14] = biological target: T8, hPUF_MT(R8_N12S,Q16E, R3→R5, R4→R6) (R8 repeat N12S,Q16E); assay: EMSA; binds G exclusively; settings: label: Alexa680 at 5' and 3'
T8 chain: T1 chain with N295S, Q299E

hPUF_MT(R3→R5, R4→R6) [15] = biological target: T1, hPUF_MT(R3→R5, R4→R6); assay: EMSA; binds U exclusively at R8 position; settings: label: Alexa680 at 5' and 3'
[16] = biological target: T9, hPUF_MT(R5:G_13R)3(R6:C_13Y)3; assay: EMSA; settings: label: Alexa680 at 5' and 3'
T9 chain: T4 chain with R112E, N144S, Q148R, R184E, N216S, Q220R, R256E, N288S, Q292R

## CCAGAAUUGUGUGUGUAUUCG [OTS-2004 (Example 5-6, GU repeat)]
[1]
  binding signal (fold weaker than (R5:G 13R)3(R6:U 13Y)3): 30

## CCAGAAUUGUGUGUGUAUUCG [OTS-2004 (Example 5-6)]
[2]
  binding signal (fold of R6 13Y protein): 3

## CCAGAAUUGUAUAUAUAUUCG [OTS-1844]
[3]
  binding signal (fold of 13Y protein): < 0.033

## CCAGAAUUGGAGAGAUAUUCG [OTS-2008]
[4]
  binding signal (fold of 13Y protein): < 0.033

## CCAGAAUUGUCUCUCUAUUCG [OTS-2006]
[5]
  binding signal (fold of 13Y protein): 0.1

## CCAGAAUUGCACACAUAUUCG [OTS-2004 (Example 5-4)]
[6]
  binding signal (fold of 13Y protein): 0.33

## CCAGAAUUAUAUAUAUUCG (ssRNA) [OTS-1754]
hPUF_MT(R3→R5, R4→R6) [7]
  binding result: no binding

## CCAGAAUUCUAUAUAUUCG (ssRNA) [OTS-2033]
[8]
  binding result: no binding
[9]
  binding result: binds
hPUF_MT(R3→R5, R4→R6) [7]
  binding result: no binding

## CCAGAAUUGUCUCUCUAUUCG (ssRNA) [OTS-2006]
[10]
  binding result: binds

## CCAGAAUUGUAUAUAUAUAUUCG (ssRNA) [OTS-1924]
[11]
  binding result: binds

## CCAGAAUUGUAUAGAUUCG (ssRNA) [OTS-2024]
[12]
  binding result: no binding
[13]
  binding result: binds

## CCAGAAUUGUAUACAUUCG (ssRNA) [OTS-2025]
[12]
  binding result: binds
[13]
  binding result: no binding

## CCAGAAUUGUAUAAAUUCG (ssRNA) [OTS-2023]
[12]
  binding result: no binding
[13]
  binding result: no binding

## CCAGAAUGGUAUAUAUUCG (ssRNA) [OTS-2034]
[14]
  binding result: binds
hPUF_MT(R3→R5, R4→R6) [15]
  binding result: no binding

## CCAGAAUUGCGCGCGUAUUCG (ssRNA) [OTS-2007]
[16]
  binding result: binds

Source: patent US11472855, “RNA-binding protein” (Panitch Schwarze Belisario & Nadel LLP)
